# Experimental data published in the Immune Epitope Database (IEDB).
# Columns and labels:
# HLA-B*46:01 = experiment: IEDB peptide-MHC binding, purified MHC/competitive/fluorescence; filed as Kd, often an IC50 or EC50 that approximates it; ≥ and ≤ were set here for values at or beyond the usual limits of such assays
# HLA-A*29:02 [1] = experiment: IEDB peptide-MHC binding, purified MHC/direct/fluorescence; filed as Kd, often an IC50 or EC50 that approximates it; ≥ and ≤ were set here for values at or beyond the usual limits of such assays; details: source organism: Escherichia coli O157:H7 str. EC869
# HLA-B*51:01 [2] = experiment: as above; details: source organism: Escherichia coli O157:H7
# HLA-B*18:01 [3] = experiment: as above; details: source organism: Escherichia coli O157:H7 str. EC869
# HLA-A*24:03 [4] = experiment: as above; details: source organism: Escherichia coli O157:H7 str. EC869
# HLA-A*02:11 = experiment: as above; details: source organism: Escherichia coli O157:H7 str. EC869
# HLA-B*57:01 [5] = experiment: as above; details: source organism: Escherichia coli O157:H7 str. EC869
# HLA-A*30:01 = experiment: as above; details: source organism: Escherichia coli O157:H7 str. EC869
# HLA-A*02:10 = experiment: as above; details: source organism: Escherichia coli O157:H7 str. EC869
# HLA-B*07:02 [6] = experiment: as above; details: source organism: Escherichia coli O157:H7
# HLA-B*58:01 [7] = experiment: as above; details: source organism: Escherichia coli O157:H7 str. EC869
# HLA-B*15:01 = experiment: as above; details: source organism: Escherichia coli O157:H7 str. EC869
# HLA-A*23:01 [8] = experiment: as above; details: source organism: Escherichia coli O157:H7 str. EC869
# HLA-B*44:02 = experiment: as above; details: source organism: Escherichia coli O157:H7 str. EC869
# HLA-A*02:50 = experiment: as above; details: source organism: Escherichia coli O157:H7 str. EC869
# HLA-B*40:01 = experiment: as above; details: source organism: Escherichia coli O157:H7 str. EC869
# HLA-A*80:01 = experiment: IEDB peptide-MHC binding, purified MHC/competitive/fluorescence; filed as Kd, often an IC50 or EC50 that approximates it; ≥ and ≤ were set here for values at or beyond the usual limits of such assays; details: source organism: Plesiomonas shigelloides
# HLA-A*29:02 [9] = experiment: as above; details: source organism: Plesiomonas shigelloides
# HLA-B*51:01 [10] = experiment: as above; details: source organism: Plesiomonas shigelloides
# HLA-A*24:03 [11] = experiment: as above; details: source organism: Plesiomonas shigelloides
# HLA-A*02:19 = experiment: as above; details: source organism: Plesiomonas shigelloides
# HLA-B*27:03 = experiment: as above; details: source organism: Plesiomonas shigelloides
# HLA-B*57:01 [12] = experiment: as above; details: source organism: Plesiomonas shigelloides
# HLA-B*39:01 = experiment: as above; details: source organism: Plesiomonas shigelloides
# HLA-A*02:03 = experiment: as above; details: source organism: Plesiomonas shigelloides
# HLA-A*02:12 = experiment: as above; details: source organism: Plesiomonas shigelloides
# HLA-A*23:01 [13] = experiment: as above; details: source organism: Plesiomonas shigelloides
# HLA-A*68:02 [14] = experiment: as above; details: source organism: Plesiomonas shigelloides
# HLA-A*02:16 = experiment: as above; details: source organism: Plesiomonas shigelloides
# HLA-A*02:01 [15] = experiment: as above; details: source organism: Plesiomonas shigelloides
# HLA-A*69:01 = experiment: as above; details: source organism: Plesiomonas shigelloides
# HLA-A*26:01 = experiment: as above; details: source organism: Plesiomonas shigelloides
# HLA-B*53:01 = experiment: IEDB peptide-MHC binding, purified MHC/competitive/fluorescence; ≥ and ≤ were set here for values at or beyond the usual limits of such assays; details: source organism: Homo sapiens
# HLA-A*29:02 [16] = experiment: as above; details: source organism: Homo sapiens
# HLA-B*51:01 [17] = experiment: as above; details: source organism: Homo sapiens
# HLA-B*18:01 [18] = experiment: as above; details: source organism: Homo sapiens
# HLA-A*01:01 = experiment: as above; details: source organism: Homo sapiens
# HLA-B*40:02 = experiment: as above; details: source organism: Homo sapiens
# HLA-A*24:02 = experiment: as above; details: source organism: Homo sapiens
# HLA-A*31:01 = experiment: as above; details: source organism: Homo sapiens
# HLA-B*44:03 = experiment: as above; details: source organism: Homo sapiens
# HLA-B*07:02 [19] = experiment: as above; details: source organism: Homo sapiens
# HLA-B*58:01 [20] = experiment: as above; details: source organism: Homo sapiens
# HLA-B*35:01 = experiment: as above; details: source organism: Homo sapiens
# HLA-B*14:02 = experiment: as above; details: source organism: Homo sapiens
# HLA-A*68:02 [21] = experiment: as above; details: source organism: Homo sapiens
# HLA-A*03:01 = experiment: as above; details: source organism: Homo sapiens
# HLA-A*25:01 = experiment: as above; details: source organism: Homo sapiens
# HLA-A*11:01 = experiment: as above; details: source organism: Homo sapiens
# HLA-B*08:01 = experiment: as above; details: source organism: Homo sapiens
# HLA-B*37:01 = experiment: as above; details: source organism: Homo sapiens
# HLA-A*02:01 [22] = experiment: as above; details: source organism: Homo sapiens
sequence,measurement,setting,value
ESMMGSTAM,Kd,HLA-B*46:01; source organism: Escherichia coli str. K-12 substr. MG1655,3000 nM
same,Kd,HLA-A*29:02 [1],≥ 20 µM
same,Kd,HLA-B*51:01 [2],≥ 20 µM
same,Kd,HLA-B*18:01 [3],≥ 20 µM
same,Kd,HLA-A*24:03 [4],≥ 20 µM
same,Kd,HLA-A*02:11,≥ 20 µM
same,Kd,HLA-B*57:01 [5],≥ 20 µM
same,Kd,HLA-A*30:01,≥ 20 µM
same,Kd,HLA-A*02:10,≥ 20 µM
same,Kd,HLA-B*07:02 [6],316 nM
same,Kd,HLA-B*58:01 [7],≥ 20 µM
same,Kd,HLA-B*15:01,31 nM
same,Kd,HLA-A*23:01 [8],≥ 20 µM
same,Kd,HLA-B*44:02,≥ 20 µM
same,Kd,HLA-A*02:50,≥ 20 µM
same,Kd,HLA-B*40:01,≥ 20 µM
LLFRMILNY,Kd,HLA-A*80:01,25.9 nM
same,Kd,HLA-A*29:02 [9],5 nM
same,Kd,HLA-B*51:01 [10],≥ 20 µM
same,Kd,HLA-A*24:03 [11],≥ 20 µM
same,Kd,HLA-A*02:19,≥ 20 µM
same,Kd,HLA-B*27:03,≥ 20 µM
same,Kd,HLA-B*57:01 [12],≥ 20 µM
same,Kd,HLA-B*39:01,≥ 20 µM
same,Kd,HLA-A*02:03,≥ 20 µM
same,Kd,HLA-B*46:01; source organism: Plesiomonas shigelloides,≥ 20000 nM
same,Kd,HLA-A*02:12,≥ 20 µM
same,Kd,HLA-A*23:01 [13],≥ 20 µM
same,Kd,HLA-A*68:02 [14],≥ 20 µM
same,Kd,HLA-A*02:16,≥ 20 µM
same,Kd,HLA-A*02:01 [15],≥ 20 µM
same,Kd,HLA-A*69:01,≥ 20 µM
same,Kd,HLA-A*26:01,≥ 20 µM
YFYYNAFHWAI,IC50,HLA-B*53:01,≥ 20 µM
same,IC50,HLA-A*29:02 [16],661 nM
same,IC50,HLA-B*51:01 [17],≥ 20 µM
same,IC50,HLA-B*18:01 [18],≥ 20 µM
same,IC50,HLA-A*01:01,≥ 20 µM
same,IC50,HLA-B*40:02,≥ 20 µM
same,IC50,HLA-A*24:02,1130 nM
same,IC50,HLA-A*31:01,≥ 20 µM
same,IC50,HLA-B*44:03,≥ 20 µM
same,IC50,HLA-B*07:02 [19],≥ 20 µM
same,IC50,HLA-B*58:01 [20],≥ 20 µM
same,IC50,HLA-B*35:01,≥ 20 µM
same,IC50,HLA-B*14:02,15.1 µM
same,IC50,HLA-A*68:02 [21],3.62 µM
same,IC50,HLA-A*03:01,≥ 20 µM
same,IC50,HLA-A*25:01,≥ 20 µM
same,IC50,HLA-A*11:01,≥ 20 µM
same,IC50,HLA-B*08:01,≥ 20 µM
same,IC50,HLA-B*37:01,≥ 20 µM
same,IC50,HLA-A*02:01 [22],2910 nM
